Data published in the DeepSol protein solubility set.

Assay: soluble on expression in E. coli; label from the status in PepcDB or PDB records

Sequence	soluble on expression in E. coli
RLSTWARKQTAMSQTQDYECRSHNVDLPESRIPGSNTRLEWVEIIEPRTRERMYANLVTGECVWDPPAGVRIKRTSENQWWELFDPNTSRFYYYNASTQRTVWHRPQGCDIIPLAKLQTLKQNTESPRASAESSPGRGSSVSREGSTSSSLEPEPDTEKAQELPARAGRPAAFGTVKEDSGSSSPPGVFLEKDYEIYRDYSADGQLLHYRTSSLRWNSGAKERMLIKVADREPSFLAAQGNGYAPDGPPGVRSRRPSGSQHSPSLQTFAPEADGTIFFPERRPSPFLKRAELPGSSSPLLAQPRKPSGDSQPSSPRYGYEPPLYEEPPVEYQAPIYDEPPMDVQFEAGGGYQAGSPQRSPGRKPRPFLQPNKQGPPSPCQQLVLTKQKCPERFLSLEYSPAGKEYVRQLVYVEQAGSSPKLRAGPRHKYAPNPGGGSYSLQPSPCLLRDQRLGVKSGDYSTMEGPELRHSQPPTPLPQAQEDAMSWSSQQDTLSSTGYSPGTRKRKSRKPSLCQATSATPTEGPGDLLVEQPLAEEQPPCGTSLAPVKRAEGEAEGARGAAEPFLAQARLAWEAQQAHFHMKQRSSWDSQQDGSGYESDGALPLPMPGPVVRAFSEDEALAQQENRHWRRGTFEKLGFPQILLEKSVSVQTNLASPEPYLHPSQSEDLAACAQFESSRQSRSGVPSSSCVFPTFTLRKPSSETDIENWASKHFNKHTQGLFRRKVSIANMLAWSSESIKKPMIVTSDRHVKKEACELFKLIQMYMGDRRAKADPLHVALEVATKGWSVQGLRDELYIQLCRQTTENFRLESLARGWELMAICLAFFPPTPKFHSYLEGYIYRHMDPVNDTKGVAISTYAKYCYHKLQKAALTGAKKGLKKPNVEEIRHAKNAVFSPSMFGSALQEVMGMQRERYPERQLPWVQTRLSEEVLALNGDQTEGIFRVPGDIDEVNALKLQVDQWKVPTGLEDPHVPASLLKLWYRELEEPLIPHEFYEQCIAHYDSPEAAVAVVHALPRINRMVLCYLIRFLQVFVQPANVAVTKMDVSNLAMVMAPNCLRCQSDDPRVIFENTRKEMSFLRVLIQHLDTSFMEGVL	soluble
RMEMVEIGGIQQALYIRGQNADNPIILWVHGGPGNSMMPFLHLYQYEWENDFTVVNWDQRNVGKTYFANDPAAVLQTMSAERVLQDVHEVTAYLKQEFNKEKIILIGHSWGTVLGTMAVQTYPEDYSAYIGIAQTVNMVDNERVGYEKTLEMVKAAGKQKDIKALEAIAPYPPAKYGPSYLAALMTVRTYQSKYGLSINMDLGNIISILATPYYSLRELKNTAIFNPNAIDNQGDVLRFLVEEADIRNYGVDYQVPVYYIMGENDYNSPYLPAKKFFDEIVAPDKQIFFIPDADHLPFLSKKAEFDCVLLE	not soluble
RMNLKEAAKKAENKSDFVNHVLPHYCNIMFGLIETRSAFLHEKSNFFEGFLTKEGLINEDRFAPMFGIYGMAEAVDILMEKEGIEAKYGHDEIANQLGHAISKQLSEIVDATDVKYGYHGKALLHAQGGISLDIDVTPGVRIPYGTEPDPVSYVQATVGHHQYYTSGISDILTIDETVKSNPEAMFNLAKGALQLGYREFTANVASNDLVRITGYMVKLSDIAKYDAEGSRTNTTFL	not soluble
RPARQVRRLEFNQAMDDFKTMFPNMDYDIIECVLRANSGAVDATIDQLLQMNLE	soluble
RPLKRDKPAARTLKDNWLRTEREERLWQALRVWRMKQAEAEGIPAYMIFGDKTLRDLVEKMPQDLNGLHDIYGLGEAKIDRFGHGILEVCRNAAGFSRDAVIRPQTEREQQLRQKLEAWRYEQARAENCALHAVLSDESLADMLADTPETETDLEGVYGLGSVRAAKYGRDILAVCRPFSDGIDETAKRKRRLMRALIQWCGETAKHEQSEPYRILSKAALRAIAAKQPEGLAELAAVYGVGEEKAARYGAAVLAVLERNAV	not soluble
RPPLQEYVRKLLYKDLSKVTTEKVLRQMRKLPWQDQEVKDYVICCMINIWNVKYNSIHCVANLLAGLVLYQEDVGIHVVDGVLEDIRLGMEVNQPKFNQRRISSAKFLGELYNYRMVESAVIFRTLYSFTSFGVNPDGSPSSLDPPEHLFRIRLVCTILDTCGQYFDRGSSKRKLDCFLVYFQRYVWWKKSLEVWTKDHPFPIDIDYMISDTLELLRPKIKLCNSLEESIRQVQDLEREFLIKLGLVN	soluble
RPQTTNSWQNSEIEGIDIMLAIDVSTSMLAEDLKPNRLEAAKDVAAEFINGRPNDNIGITLFAGESFTQCPLTVDHAVLLNLFQGIQCDIIEDGTAVGMGIANAVTRLKDSKAKSKVIILLTDGTNNKGDISPLTAAEIAKSFGIRVYTIGVGTNGMAPYPVRVGGTTQYINTPVEIDEKTLTQIAGTTDGNYFRATSNSKLKEVYEEI	not soluble
RRNINVVLHEDSKALDEVVIVGYGKQKKESVVVSMSSIKPKDIVVPSRSLNNSLAGQVAGLIAVQRSGEPGYDNAEFWIRGVSTFAGGTSPLVLVDGVPRNMSDIEPDEIETFSVLKDAAATAIYGAEGANGVVLVTTKRGRVEK	not soluble
RSDTTIVATVNPRDKQTTLVSLARDTYVDIPGQGKQDKLNHAYAFGGASLAMDTVENYLNIPINHYVSINMAGLKELVNAVGGIEVNNNLTFSQDGYDFTIGKISLDGEQALSYSRMRYEDPNGDYGRQERQRKVIEGIVQKVLS	not soluble
RTLELAFSSEAAEVQTRSGVEILGHRINEVRMHRLDNGAALLLDHNPREHIGVVESASIDSDHRGRAIVRFGRSPRAEEILRDVLDGIRKHVSVGYLVHQVEVIGQRDAGPLYRATDWEPIEISIVSIPADPSVGIGRALENLPQD	not soluble
RVASNLDNKARVTELFNSAYSILTEVEKLAQEGKMSEPEAKALATRLMRNNLYKDNEYVYVADENMTFVATPLDPQLHDTSFHDFKDGKGNSVGR	not soluble
RVCPRILLECKKDSDCLAECVCLEHGYCG	soluble
RVKGTFNKYSQLRSMSGMNGAQVAQRVLQAAGIYDVQVRHVSGSLTDHYDPRTKTVNLSDPVYNATSVAALGVAAHECGHAIQHAKSYAPLSIRS	not soluble
RWQEGNRITLLENGDQYYPALFAAIGRASRRVILESFIWFEDEVGRRLHAVLLEAARRGIQVEVLLDGYGSPDLSDEFVGELTAAGVIFRYYDPRPKLMGMRTNLFRRMHRKIVVIDDTTAFVGGINYSAEHMSDYGPEAKQDYAVQVEGPVVLDILQFELENLPNSETARRWWRRRRH	not soluble
RYWKPEFHPDNSKSIEEWTDEIHTTLQKIMPEVKSENETAELFLSGGVDSSYILAMSDIEKTGSCGYEEERFDESKLAQQTANILGCKNSRYIITPEEYFASVPYVMYHMEQPTGDASAIVFAIGCKAAAENTNICYSGEGADEFFGGYNIYHKAECYGENLKTFYIGNTNIMNEGEKRKILKKYNPDVLPIEVVKGIYEETEELDTLTNMSNVDIQIWLEGDIYFNIDKMSTAVGLEVRMPLTDTRIFDIASRIPSEYKVKGKENKIAFRTAASKTLPEEIAFRNKLGFIVPIRIWMADDQYNKDIRDKFNSEIADKFFNIDEINEIFNDYISGNSDNWRKIWMIYTFLVWYEIYFVKC	not soluble
SAEGDAGSDQRQNEEIEAMAAIYGEEWCVIDDCAKIFCIRISDDIDDPKWTLCLQVMLPNEYPGTAPPIYQLNAPWLKGQERADLSNSLEEIYIQNIGESILYLWVEKIRDVLIQKSQMTEPGPDVKKKTEEEDVECEDDLILACQPESSVKALDFDISETRTEVEVEELPPIDHGIPITDRRSTFQAHLAPVVCPKQVKMVLSKLYENKKIASATHNIYAYRIYCEDKQTFLQDCEDDGETAAGGRLLHLMEILNVKNVMVVVSRWYGGILLGPDRFKHINNCARNILVEKNYTNSPEESSKALGKNKKVRKDKKRNEH	soluble
SAKNAYTKLGTDDNAQLLDIRATADFRQVGSPNIKGLGKKAVSTVYNGEDKPGFLKKLSLKFKDPENTTLYILDKFDGNSELVAELVALNGFKSAYAIKDGAEGPRGWLNSSLPWIEPKKT	soluble
SALDTNYCFRNLEENCCVRPLYIDFRQDLGWKWVHEPKGYYANFCSGPCPYLRSADTTHSTVLGLYNTLNPEASASPCCVPQDLEPLTILYYVGRTPKVEQLSNMVVKSCKCS	soluble
SALKAEGAALDCFEVTLKCEEGEDEEEAMVVAVIPRPEPMLRVTQQEKTPPPRPSPLEAGSDGCEEPKQQVSWEQEFLVGSSPGGSGRALCMVCGAEIRAPSADTARSHILEQHPHTLDLSPSEKSNILEAWSEGVALLQDVRAEQPSPPNSDSGQDAHPDPDANPDAARMPAEIVVLLDSEDNPSLPKRSRPRGLRPLELPAVPATEPGNKKPRGQRWKEPPGEEPVRKKRGRPMTKNLDPDPEPPSPDSPTETFAAPAEVRHFTDGSFPAGFVLQLFSHTQLRGPDSKDSPKDREVAEGGLPRAESPSPAPPPGLRGTLDLQVIRVRMEEPPAVSLLQDWSRHPQGTKRVGAGDTSDWPTVLSESSTTVAGKPEKGNGV	soluble
SANTSFLLRKKIFAKLMRITTPSHDHYGSSTLLVRLTNDVYLMEVIAFDFL	not soluble
SASGDFCSPGEGMEILQQVCSKQLPPCNLSKEDLLQNPYFSKLLLNLSQHVDESGLSLTLAKEQAQAWKEVRLHKTTWLRSEILHRVIQELLVDYYVKIQDTNVTSEDKKFHETLEQRLLVTELMRLLGPSQEREIPPLLGLEKADLLELMPLSEDFVWMRARLQQEVEEQLKKKCFTLLCYYDPNSDADSETVKAAKVWKLAEVLVGEQQQCQDAKSQQKEQMLLLEKKSAAYSQVLLRCLTLLQRLLQEHRLKTQSELDRINAQYLEVKCGAMILKLRMEELKILSDTYTVEKVEVHRLIRDRLEGAIHLQEQDMENSRQVLNSYEVLGEEFDRLVKEYTVLKQATENKRWALQEFSKVYR	not soluble
SASPSLERPEKGAGKSEFRNQKPKPENQDESELLTVPDGWKEPAFSKEDNPRGLLEESSFATLFPKYRGAYLKECWPLVQKALNEHHVNATLDLIEGSMTVCTTKKTFDPYIIIRARDLIKLLARSVSFEQAVRILQDDVACDIIKIGSLVRNKERFVKRRQRLIGPKGSTLKALELLTNCYIMVQGNTVSAIGPFSGLKEVRKVVLDTMKNIHPIYNIKSLMIKRELAKDSELRSQSWERFLPQFKHKNVNKRKEPKKKTVKKEYTPFPPPQPESQIDKELASGEYFLKANQKKRQKMEAIKAKQAEAISKRQEERNKAFIPPKEKPIVKPKEASTETKIDVASIKEKVKKAKNKKLGALTAEEIALKMEADEKKKKKKK	soluble
SCIIFLKFDPRPASKNAYRLILAANRDEVYSRPSKAAEFWGSSSEILSGLDMEEGKEGGSWLGISKRGKLAALTNYLEARQNPDAQGRGFLVSNYLTDNLDSLAYLRKVSSEAHLYNGFNLLTAEFRANEDTLCYYGNKGSSEPIHLKAGIYGLSNSLLETPWRKLQHGKQLFSSVVSKTLPPDGLVQELLHILNNEELNTPDPAQESQGVGYSNAMLRALSAVCVRSPGYGTRTNTVILIDREGNVSFTERTMQNCDITQWSTNSFHFRLQE	soluble
SDDKPNPEALSDSSERLFSFGVIADVQFADLEDGFNFQGTRRRYYRHSLLHLQGAIEDWNNESSMPCCVLQLGDIIDGYNAQYNASKKSLELVMDMFKRLKVPVHHTWGNHEFYNFSREYLTHSKLNTKFLEDQIVHHPETMPSEDYYAYHFVPFPKFRFILLDAYDLSVLGVDQSSPKYEQCMKILREHNPNTELNSPQGELFL	soluble
